Test results published in article PMC5673899, “Structural basis for receptor recognition of pollen tube attraction peptides” (Nature Communications, 2017).
“Also recorded” adds a separate entry of the source.

Tests used:
[1] = test system: prk6 pollen tubes transformed with PRK6 D234A; test: Wavy assay, prk6 pollen tubes transformed with D234A PRK6; assay type: cell-based, Arabidopsis; conditions: 250 nM wild-type AtLURE1.2 in medium
Protocol: Attraction activities of mutant AtLURE1.2 peptides were examined for semi-in-vivo pollen tubes growing through cut, pollinated pistils by gelatin-beads assay and wavy assay, [20]. For the gelatin-beads assay, pollen tubes were grown on solid pollen germination medium poured into a mold made with 1-mm thick silicone rubber and cover glasses. After hand-pollination, the topside cover glass was removed and the medium was covered with hydrated silicone oil (KF-96–100CS; Shin-Etsu). Attraction of pollen tubes toward the peptide was evaluated using AtLURE1 peptide containing gelatine beads under an inverted microscope (IX71, Olympus) equipped with a micro-manipulator (Narishige). For the AtLURE1-responsive wavy assay, the purified AtLURE1.2 peptide was added to solid pollen germination medium, which was melted at 70 °C and then cooled to a certain degree. The mixture was mixed by vortexing and poured into the mold. Pollen tubes of each genotype were grown through cut styles, as mentioned above. Each peptide (25 μM in 10 mM Bis-Tris (pH 6.0) and 100 mM NaCl) was diluted to 250 nM by cultivation medium in both assays. […]
pollen tubes. Fluorescence is from mRuby2 fused to the C-terminal of PRK6 receptors, showing that all of mutant PRK6 receptors localize normally to the plasma membrane of the pollen tube tip. […]

[2] = test system: PRK6 N239A; test: In vitro pull-down with AtPRK6^LRR mutant N239A; assay type: binding, Arabidopsis thaliana
From the text: The genes of AtPRK3 ^LRR (residues 1–241), AtPRK4 ^LRR (residues 1–277), AtPRK5 ^LRR (residues 1–279), AtPRK6 ^LRR (residues 1–262), MIK1 ^LRR (residues 1–633), MIK2 ^LRR (residues 1–707) were amplified from Arabidopsis cDNA library by PCR and cloned into pFastBac-1 vector with a C-terminal 6 × His-tag. Their identities were confirmed by sequencing. The mature form of AtLURE1.1 (residues 20–94), AtLURE1.2 (residues 20–90), AtLURE1.3 (residues 21–91), and AtLURE1.4 (residues 20–90) were cloned into pFastBac-1 vector, with a modified N-terminal hemolin signal peptide and 6 × His-SUMO tag. Point mutation constructs were generated by QuickChange Site-Directed Mutagenesis Kit (Strategene). All the proteins were expressed using the Bac-to-Bac baculovirus expression system (Invitrogen) in High Five cells at 22 °C. One liter of High Five cells (2.0 × 10^6 cells mL^−1) cultured in the medium from Expression Systems was infected with 25 ml recombinant baculovirus and the media was collected after 72 h of infection. Secreted LRR proteins were purified using Ni-NTA (Novagen) and size-exclusion chromatography (Hiload 200, GE Healthcare) in buffer containing 10 mM Bis-Tris pH 6.0 and 100 mM NaCl. […]
The purified His-tagged ectodomains of AtPRK proteins and MIK1, 2 were used to pull-down the AtLURE1.2 peptide. […] All the eluted samples were analyzed by SDS-PAGE and visualized by Coomassie blue staining. […]

[3] = test system: prk6 knockout pollen tubes; conditions: cited from earlier work
From the text: (§1) The DEFL peptide SCR9 that is involved in self-recognition in self-incompatibility induces homodimerization of its receptor SRK9 (ref. [34]).

[4] = test system: prk3 deletion pollen tubes; conditions: cited from earlier work
From the text: as §1

B1: AtLURE1.2: mature form of AtLURE1.2 (residues 20–90), defensin-like cysteine-rich peptide expressed in insect cells (protein)
chain: TLINGSSDEERTYSFSPTTSPFDPRSLNQELKIGRIGYCFDCARACMRRGKYIRTCSFERKLCRCSISDIK
modifications: left off: His6, N-terminal, cleaved | SUMO, N-terminal, cleaved
notes: mature form of AtLURE1.2 (residues 20–90), defensin-like cysteine-rich peptide expressed in insect cells
wavy and branched pollen tube behavior [1]: branched behavior is not observed; also recorded: greatly compromised
AtLURE1.2 binding activity of receptor mutant [2]: still retained the AtLURE1.2 binding activity
pollen tube reorientation toward AtLURE1.2 [3]: completely abolished
responsiveness of pollen tubes to AtLURE1.2 [4]: little effect
